Laboratory results from patent US20240218070A1 (MERUS N V, published 2024).

Target: T1, human FAP (huFAP) expressed on cells (human, UniProt Q12884 1-760)
T1 construct: also called WI-38 cells
T1 sequence: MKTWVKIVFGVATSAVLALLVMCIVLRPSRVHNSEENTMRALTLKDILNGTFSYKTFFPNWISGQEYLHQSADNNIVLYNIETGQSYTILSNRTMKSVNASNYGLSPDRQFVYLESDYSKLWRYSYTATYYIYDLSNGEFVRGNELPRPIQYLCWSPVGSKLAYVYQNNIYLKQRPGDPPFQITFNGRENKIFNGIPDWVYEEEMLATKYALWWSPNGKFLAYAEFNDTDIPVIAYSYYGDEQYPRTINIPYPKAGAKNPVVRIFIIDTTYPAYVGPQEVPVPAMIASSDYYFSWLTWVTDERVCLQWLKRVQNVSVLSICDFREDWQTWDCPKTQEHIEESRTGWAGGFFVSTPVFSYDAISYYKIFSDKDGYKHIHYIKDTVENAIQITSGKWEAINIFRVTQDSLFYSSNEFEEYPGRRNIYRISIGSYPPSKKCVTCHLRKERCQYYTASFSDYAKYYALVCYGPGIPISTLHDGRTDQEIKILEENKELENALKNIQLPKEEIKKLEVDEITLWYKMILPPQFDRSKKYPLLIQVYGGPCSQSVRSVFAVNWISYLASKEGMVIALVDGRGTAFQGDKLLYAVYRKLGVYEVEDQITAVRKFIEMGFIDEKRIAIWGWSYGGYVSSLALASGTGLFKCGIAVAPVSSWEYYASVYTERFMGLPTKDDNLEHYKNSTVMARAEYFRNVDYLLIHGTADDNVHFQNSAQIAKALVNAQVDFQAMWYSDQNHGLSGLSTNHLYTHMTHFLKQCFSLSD
Assay: FACS titration (10 ug/ml to 3.16 ng/ml) on WI-38 cells; positive control sibrotuzumab analog
Method: The human anti-FAP panel was tested on WI-38 cells (endogenously expressing huFAP) and binding was measured by FACS.
The target cells were harvested, counted, and centrifuged for 5 min at 300 g at 4° C. Cells were then resuspended in FACS buffer at a concentration of 1×10⁶ cells/ml and transferred (200,000 cells/well) to a U-bottom 96-well FACS plate (BD, cat. #353910). Cells were washed by adding 200 μl PBS and centrifuged for 3 min at 300 g at 4 °C. Cells were then centrifuged for 3 min at 300 g at 4° C. and supernatant was discarded. Antibodies were diluted in an 8 steps, semi-log dilution series ranging from 10 ug/ml to 3.16 ng/ml in FACS buffer (50 μ/well), mixed, and incubated for 30 min at 2-8° C. in the dark. A titration of the sibrotuzumab analog was included as positive control and used to normalize data. The negative control TT antibody was included as negative control. Cells were washed by adding 150 μl FACS buffer and centrifuged for 3 min at 300 g at 4° C. Supernatant was discarded, and cells were washed again by adding 200 μl FACS buffer to the plate. Cells were then centrifuged for 3 min at 300 g at 4° C. and afterwards the supernatant was discarded. […] Fluorescence intensity of the cells was then measured on the iQue VBR (Intellicyt).

B1: anti-human FAP bivalent monospecific IgG comprising heavy chain variable region SEQ ID NO: 19 (antibody, V domains shown)
VH: EVQLVESGGGLVKPGGSLRLSCAASGFPFNYAWMSWVRQAPGKGLEWVGRIKPKTSGGATDYAAPVKDRFTISRDDSRNTLYLQMNSLKTEDTAVYYCSAREDIWNFFFDLWGQGTLVTVSS
VL: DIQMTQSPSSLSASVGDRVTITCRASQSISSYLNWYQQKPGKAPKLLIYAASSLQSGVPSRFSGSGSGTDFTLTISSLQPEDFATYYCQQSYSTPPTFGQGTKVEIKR
notes: IgG1 format, common light chain VK1-39/JK1
binding result: binds
